Key:
[1] = molecular target: human insulin receptor isoform B (human) (UniProt P06213); assay: SPA competition with 100 pM [125I]-human insulin, membranes of CHO cells overexpressing IR
[2] = molecular target: human insulin receptor isoform B (human) (UniProt P06213); assay: cell-based or functional assay
[3] = Storage stability of the activated sulfonamide; assay type: physicochemical; settings: acetonitrile solution under argon, 2 to 8° C.
Procedure: 32.5 g 2-[2-[2-[[2-[2-[2-[[2-[[4-(16-tert-butoxy-16-oxo-hexadecoxy)phenyl]sulfonylamino]-pyrimidine-5-carbonyl]amino]ethoxy]ethoxy]acetyl]amino]ethoxy]ethoxy]acetic acid (sticky syrup) was dissolved in 305 ml dry acetonitrile. 305 ml dry ethyl acetate under an argon layer, 16.25 g (63.4 mmol) N,N-disuccinimidylcarbonat and 3.25 g (26.6 mmol) dimethylaminopyridine was added under stirring at room temperature (25° C.). After 90 minutes, the solvent was distilled off using a rotary evaporator and the remaining oily product was dissolved in 1.5 liters of ethyl acetate. The ethyl acetate solution was extracted three times, each time with 300 ml 0.1 N HCl and 300 ml saturated NaCl solution. The solvent was distilled off using a rotary evaporator, leaving again an oily product. The oily product was dissolved in 0.5 liters of ethyl acetate, the precipitated NaCl was filtered off and the ethyl acetate was distilled off. Next, 0.5 liters of ethyl acetate was added and the solvent was distilled off using a rotary evaporator. […] Yield in the acetonitrile solution was calculated from HPLC data as 78% based on the amount of 2-[2-[2-[[2-[2-[2-[[2[[4-(16-tert-butoxy-16-oxo-hexadecoxy)phenyl]sulfonylamino]-pyrimidine-5-carbonyl]amino]ethoxy]ethoxy]acetyl]amino]ethoxy]ethoxy]acetic acid used. […]

For “Glu(A14)Gly(A21)Val(B16)Trp(B25)Des(B30)-Insulin (ligand)”, the Insulin-receptor binding affinity (relative to human insulin) (relative to human insulin) [1] was 0.17 and the Autophosphorylation activity (relative to human insulin) [2] was 0.23.
With “Glu(A14)Val(B16)Val(B25)Des(B30)-Insulin (ligand)” the Autophosphorylation activity (relative to human insulin) [2] was 0.03.
Compound “His(B16)His(B25)Des(B30)-Insulin (ligand)” has an Autophosphorylation activity (relative to human insulin) [2] of 0.1.
Compound “Gly(A21)Trp(B16)His(B25)Des(B30)-Insulin (ligand)” has an Insulin-receptor binding affinity (relative to human insulin) (relative to human insulin) [1] of 0.4 and an Autophosphorylation activity (relative to human insulin) [2] of 0.35.
For Val(B16)Des(B30)-Insulin (ligand), the Autophosphorylation activity (relative to human insulin) [2] was 0.32.
Work on “Glu(A14)Leu(B16)Ala(B25)Des(B30)-Insulin (ligand)” yielded an Insulin-receptor binding affinity (relative to human insulin) (relative to human insulin) [1] of 0.01 and an Autophosphorylation activity (relative to human insulin) [2] of 0.04.
For “Gly(A21)Trp(B16)Trp(B25)Des(B30)-Insulin (ligand)”, the Insulin-receptor binding affinity (relative to human insulin) (relative to human insulin) [1] was 0.43 and the Autophosphorylation activity (relative to human insulin) [2] was 0.38.
Compound “Glu(A14)Gly(A21)Glu(B3)Ile(B16)Val(B25)Des(B30)-Insulin (ligand)” has an Insulin-receptor binding affinity (relative to human insulin) (relative to human insulin) [1] of 0.01 and an Autophosphorylation activity (relative to human insulin) [2] of 0.02.
Ala(B25)-Insulin (ligand) gave an Autophosphorylation activity (relative to human insulin) [2] of 0.2.
“Glu(A14)Gly(A21)Glu(B3)Val(B16)Trp(B25)Des(B30)-Insulin (ligand)” showed an Insulin-receptor binding affinity (relative to human insulin) (relative to human insulin) [1] of 0.21 and an Autophosphorylation activity (relative to human insulin) [2] of 0.19.
“Glu(A14)Val(B25)Des(B30)-Insulin (ligand)” gave an Autophosphorylation activity (relative to human insulin) [2] of 0.04.
“Glu(A14)Gly(A21)Glu(B3)Ile(B16)Trp(B25)Des(B30)-Insulin (ligand)” showed an Insulin-receptor binding affinity (relative to human insulin) (relative to human insulin) [1] of 0.12 and an Autophosphorylation activity (relative to human insulin) [2] of 0.13.
“Glu(A14)Gly(A21)Glu(B3)Val(B16)Val(B25)Des(B30)-Insulin (ligand)” gave an Insulin-receptor binding affinity (relative to human insulin) (relative to human insulin) [1] of 0.01 and an Autophosphorylation activity (relative to human insulin) [2] of 0.01.
In the case of Leu(B25)Des(B30)-Insulin (ligand), the Autophosphorylation activity (relative to human insulin) [2] is reported as 0.06.
Work on Ala(B25)Des(B30)-Insulin (ligand) yielded an Autophosphorylation activity (relative to human insulin) [2] of 0.17.
With O=C(O)CCCCCCCCCCCCCCCOc1ccc(S(=O)(=O)Nc2ncc(C(=O)NCCOCCOCC(=O)NCCOCCOCC(=O)ON3C(=O)CCC3=O)cn2)cc1 [16-[4-[[5-[2-[2-[2-[2-[2-[2-(2,5-dioxopyrrolidin-1-yl)oxy-2-oxo-ethoxy]ethoxy]ethylamino]-2-oxo-ethoxy]ethoxy]ethylcarbamoyl]pyrimidin-2-yl]sulfamoyl]phenoxy]hexadecanoate] the stability in solution [3] was “less than 3 days”.
“Glu(A14)Glu(B3)Val(B16)Des(B30)-Insulin (ligand)” gave an Insulin-receptor binding affinity (relative to human insulin) (relative to human insulin) [1] of 0.4 and an Autophosphorylation activity (relative to human insulin) [2] of 0.28.
“Glu(A14)Gly(A21)Glu(B3)Val(B25)Des(B30)-Insulin (ligand)” gave an Insulin-receptor binding affinity (relative to human insulin) (relative to human insulin) [1] of 0.02 and an Autophosphorylation activity (relative to human insulin) [2] of 0.03.
With “Glu(A14)His(B16)Des(B30)-Insulin (ligand)” the Insulin-receptor binding affinity (relative to human insulin) (relative to human insulin) [1] was 0.36 and the Autophosphorylation activity (relative to human insulin) [2] was 0.29.
Compound “Glu(A14)Val(B16)Ile(B25)Des(B30)-Insulin (ligand)” has an Autophosphorylation activity (relative to human insulin) [2] of 0.01.
With “Glu(A14)Val(B16)Des(B30)-Insulin (ligand)” the Autophosphorylation activity (relative to human insulin) [2] was 0.32.
For “Glu(A14)Gly(A21)Trp(B16)Des(B30)-Insulin (ligand)”, the Insulin-receptor binding affinity (relative to human insulin) (relative to human insulin) [1] was 0.63 and the Autophosphorylation activity (relative to human insulin) [2] was 0.38.
Compound “Glu(A14)Glu(B3)Val(B16)Val(B25)Des(B30)-Insulin (ligand)” has an Autophosphorylation activity (relative to human insulin) [2] of 0.02.
With “Glu(A14)Glu(B16)His(B25)Des(B30)-Insulin (ligand)” the Insulin-receptor binding affinity (relative to human insulin) (relative to human insulin) [1] was 0.01 and the Autophosphorylation activity (relative to human insulin) [2] was 0.07.
“Gly(A21)Trp(B16)Des(B30)-Insulin (ligand)” showed an Insulin-receptor binding affinity (relative to human insulin) (relative to human insulin) [1] of 0.57 and an Autophosphorylation activity (relative to human insulin) [2] of 0.4.
“Glu(A14)Glu(B3)Ile(B16)Ile(B25)Des(B30)-Insulin (ligand)” gave an Autophosphorylation activity (relative to human insulin) [2] of 0.01.
In the case of “Glu(A14)Ile(B25)Des(B30)-Insulin (ligand)”, the Autophosphorylation activity (relative to human insulin) [2] is reported as 0.04.
With His(B25)Des(B30)-Insulin (ligand) the Autophosphorylation activity (relative to human insulin) [2] was 0.31.
In the case of “Glu(A14)Ile(B16)Des(B30)-Insulin (ligand)”, the Insulin-receptor binding affinity (relative to human insulin) (relative to human insulin) [1] is reported as 0.23 and the Autophosphorylation activity (relative to human insulin) [2] is reported as 0.18.
Compound “Glu(A14)His(B16)His(B25)Des(B30)-Insulin (ligand)” has an Insulin-receptor binding affinity (relative to human insulin) (relative to human insulin) [1] of 0.12 and an Autophosphorylation activity (relative to human insulin) [2] of 0.11.
Work on Leu(B16)Des(B30)-Insulin (ligand) yielded an Autophosphorylation activity (relative to human insulin) [2] of 0.34.
For “Glu(A14)Ile(B16)Val(B25)Des(B30)-Insulin (ligand)”, the Autophosphorylation activity (relative to human insulin) [2] was 0.04.
Glu(A14)Des(B30)-Insulin (ligand) gave an Autophosphorylation activity (relative to human insulin) [2] of 0.87.
For Val(B25)Des(B30)-Insulin (ligand), the Autophosphorylation activity (relative to human insulin) [2] was 0.06.
Work on “Glu(A14)Gly(A21)Trp(B25)Des(B30)-Insulin (ligand)” yielded an Autophosphorylation activity (relative to human insulin) [2] of 0.37.
